Reference: US6328728A, “Composition and method for enhancing electrotransport agent delivery” (Alza Corporation, priority 1997, dated 2001)

Assay: Hydrophobicity by hydrophobic interaction chromatography (HIC), phenyl Superose column (retention time, ta/tm)
Type: physicochemical
Conditions: for HIC Column Retention Time: pH 5.0, 4 mM piperazine-HCl; for HIC Column Retention Time / HIC Retention Time: 32° C.
Protocol: The hydrophobicity of an agent (eg, an agent such as a polypeptide or protein in solution, as well as the relative increase or decrease thereof) is determined by passing the agent-containing solution through a chromatography column filled with a particular "hydrophobic interaction" bead material and measuring either (1) the time required for the agent to elute (ie, pass through) the column or (2) the volume of liquid (ie, the same liquid used in the agent-containing sample, but with the agent removed) required to be pumped through the column in order to elute the agent. For the purposes of the present invention, the hydrophobicity of an agent is defined in terms relative to the marker compound, N-acetyl tryptophanamide (sold by Sigma Chemical, St. Louis, Mo.), which has a somewhat moderate hydrophobicity. Hydrophobicity, as that term is used herein, is measured using a 5 mm diameter glass column having a length of 5 cm (ie, column volume of 1.0 mL) and packed with cross-linked agar beads having an average particle size of 13.5 μm. Examples of suitable hydrophobic bead materials include cross-linked agar gel beads (Superose 12) having hydrophobic ligands attached to the agar via chemically stable ether linkages ((Superose 12)--O--CH2 --CHOH--CH2 --O--R) such as alkyl-Superose wherein R is --CH2 --C(CH3)3 and phenyl-Superose wherein R is phenyl, both of which are sold in pre-packaged column form by Pharmacia Biotech, Inc. of Piscataway, N.J. Immediately downstream from the column is placed a flow cell which permits continuous UV absorbance measurements of the solution flowing out of the column. Suitable flow cells and UV absorbance detectors are sold by Perkin-Elmer Corp., Applied Biosystems, Foster City, Calif. Hydrophobicity measurements are conducted at 32° C. with the same buffer that is used in the electrotransport system which is used to deliver the agent (eg, transdermally) to the patient. The buffer strength used in the hydrophobicity measurements is 10 mM ionic strength. The term "certain hydrophobicity" as used herein, means that the time required for the agent to elute from the column, relative to the time required for N-acetyl tryptophanamide to elute, is as follows:
ta /tm >0.7, and preferably ta /tm >3
ta is the time at which the peak UV absorbance value is recorded for the beneficial agent in the flow cell, less the time required to initially fill the column with the agent-containing solution (ie, dead volume retention time); and
tm is the time at which the peak UV absorbance value is recorded for the N-acetyl tryptophanamide marker in the flow cell, less the time required to initially fill the column with the marker-containing solution (ie, dead volume retention time).
The above described measurement of agent hydrophobicity is substantially independent of column size and flow rate through the column.
One method of measuring the hydrophobicity of an agent such as a polypeptide or protein is by hydrophobic interaction chromatography (HIC). The principles and conditions associated with HIC are fully described in Protein Purification: Principles, High Resolution Methods, and Applications, Janson and Ryden, Eds., pp. 207-226 (1989), the pertinent portions of which are incorporated herein by reference. This method requires passing a composition through a hydrophobic interaction column and measuring the volume of solvent required for its complete elution. The hydrophobic sites on the agent are generally attracted to hydrophobic groups, such as aryl groups, affixed to beads placed within the column. A preferred HIC column material is phenyl-superose (Pharmacia, Sweden), a cross-linked polysaccharide which has been covalently modified to have pendant hydrophobic aryl groups. These pendant groups are similar to the hydrophobic or lipophilic species in the skin layers. Thus, this hydrophobic interaction column approximates, and is a good in vitro model for, an animal's skin layer as a barrier to transport of a polypeptide or protein. […]

[1] = pH 3.5, 10 mM sodium chloroacetate, TWEEN 20 0
[2] = pH 3.5, 10 mM sodium chloroacetate, TWEEN 20 1.5 mg/mL
[3] = pH 3.5, 10 mM sodium chloroacetate, TWEEN 20 2.66 mM
[4] = pH 3.5, 10 mM sodium chloroacetate, TWEEN 20 5.33 mM
[5] = pH 3.5, 10 mM sodium chloroacetate, TWEEN 20 6.66 mM
[6] = pH 3.5, 10 mM sodium chloroacetate, TWEEN 20 8.88 mM
[7] = pH 9.0, 10 mM sodium borate, TWEEN 20 0
[8] = pH 9.0, 10 mM sodium borate, TWEEN 20 1.5 mg/mL
[9] = pH 9.0, 10 mM sodium borate, TWEEN 20 2.66 mM
[10] = pH 9.0, 10 mM sodium borate, TWEEN 20 6.0 mg/mL
[11] = pH 9.0, 10 mM sodium borate, TWEEN 20 8.88 mM

Q: Which “HIC Column Retention Time” value (dodecyl sulfobetaine 0, calcitonin 0.076 mM) does the source give for Salmon Calcitonin [reference compound] here?
A: 9.4 min

Q: And the “HIC Column Retention Time” value (dodecyl sulfobetaine 0.83 mM, calcitonin 0.076 mM)?
A: 12.4 min

Q: What about the “HIC Column Retention Time” value (dodecyl sulfobetaine 3.23 mM, calcitonin 0.074 mM) of the same substance?
A: 87.1 min

Q: And the “HIC Column Retention Time” value (dodecyl sulfobetaine 6.25 mM, calcitonin 0.072 mM)?
A: 64.1 min

Q: And the “HIC Column Retention Time” value (dodecyl sulfobetaine 9.77 mM, calcitonin 0.069 mM)?
A: 45.1 min

Q: And the “HIC Column Retention Time” value (dodecyl sulfobetaine 18.4 mM, calcitonin 0.062 mM)?
A: 28.8 min

Q: What about the “HIC Column Retention Time” value (dodecyl sulfobetaine 26.4 mM, calcitonin 0.056 mM) of the same substance?
A: 24.4 min

Q: Which “HIC Retention Time” value [1] does the source give for “Insulinotropin: the protein insulinotropin” here?
A: 57.6 min

Q: And the “HIC Retention Time” value [2]?
A: 25.6 min

Q: And the “HIC Retention Time” value [3]?
A: 11.5 min

Q: What about the “HIC Retention Time” value [4] of the same substance?
A: 6.1 min

Q: What about the “HIC Retention Time” value [5] of the same substance?
A: 6.0 min

Q: And the “HIC Retention Time” value [6]?
A: 4.4 min

Q: What about the “HIC Retention Time, fractional change (% δ)” value [1] of the same substance?
A: 0

Q: What about the “HIC Retention Time, fractional change (% δ)” value [2] of the same substance?
A: 0.60

Q: What about the “HIC Retention Time, fractional change (% δ)” value [3] of the same substance?
A: 0.87

Q: And the “HIC Retention Time, fractional change (% δ)” value [4]?
A: 0.97

Q: What about the “HIC Retention Time, fractional change (% δ)” value [5] of the same substance?
A: 0.97

Q: What about the “HIC Retention Time, fractional change (% δ)” value [6] of the same substance?
A: 1.00

Q: And the “HIC Retention Time” value [7]?
A: 10.1 min

Q: What about the “HIC Retention Time” value [8] of the same substance?
A: 9.4 min

Q: What about the “HIC Retention Time” value [9] of the same substance?
A: 6.4 min

Q: What about the “HIC Retention Time” value [10] of the same substance?
A: 4.8 min

Q: What about the “HIC Retention Time” value [11] of the same substance?
A: 3.8 min

Q: What about the “HIC Retention Time, fractional change (% δ)” value [7] of the same substance?
A: 0

Q: What about the “HIC Retention Time, fractional change (% δ)” value [8] of the same substance?
A: 0.11

Q: What about the “HIC Retention Time, fractional change (% δ)” value [9] of the same substance?
A: 0.59

Q: And the “HIC Retention Time, fractional change (% δ)” value [10]?
A: 0.84

Q: What about the “HIC Retention Time, fractional change (% δ)” value [11] of the same substance?
A: 1.00
